Reference: PMC5763555

Key:
Test in all cases: EMSA
POS-1(ZFmut) TZF domain = POS-1(ZFmut) TZF domain (Caenorhabditis elegans, UniProt G5EF15 80-180, F121N;F164N)
POS-1 TZF domain = POS-1 TZF domain (Caenorhabditis elegans, UniProt G5EF15 80-180)
MEX-5 TZF domain = molecular target: T1, MEX-5 TZF domain (Caenorhabditis elegans, UniProt Q9XUB2 236-350)
T1 sequence: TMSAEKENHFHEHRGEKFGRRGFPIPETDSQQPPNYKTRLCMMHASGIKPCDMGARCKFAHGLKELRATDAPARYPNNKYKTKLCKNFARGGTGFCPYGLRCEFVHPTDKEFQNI

Sequence of POS-1 TZF domain (G5EF15 80-180): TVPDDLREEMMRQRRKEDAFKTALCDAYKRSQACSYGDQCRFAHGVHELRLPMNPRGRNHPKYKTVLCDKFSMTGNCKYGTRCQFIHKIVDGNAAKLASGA
Sequence of POS-1(ZFmut) TZF domain (G5EF15 80-180 F121N/F164N): as the sequence (G5EF15 80-180) above, with F42N, F85N counted along it

Binder | Kd (POS-1(ZFmut) TZF domain) | Kd (POS-1 TZF domain) | Kd (MEX-5 TZF domain)
UUUUUCUUAUUCUAGACUAAUAUUGUAAGCU (ssRNA) [SCR+ (glp-1 3'UTR fragment)] | > 300 nM | 26.9 ± 1.8 nM | 
GUGAUUAUUUAUUAUUUAUUUAUUAUUUAUUUAUUAG (ssRNA) [TNF-ARE] |  |  | 11 ± 2 nM
